Data from article PMC314469, “Protein Interaction Networks by Proteome Peptide Scanning” (PLoS Biology, 2004).

T1: Abp1 SH3 (ABP1_YEAST), P15891
T1 chain: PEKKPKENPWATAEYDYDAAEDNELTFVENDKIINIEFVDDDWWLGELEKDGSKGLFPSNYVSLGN


Target: T1, Abp1 SH3 (ABP1_YEAST), P15891
Assay: SPOT array

| Binder | normalised SPOT signal, Boehringer light units (BLU); mean over the file's lines of this peptide |
| --- | --- |
| PVFVTDYPRLSKP [YCR024C 376-388] | 93.5 |
| PRQVAVDPKTGKP [YKR001C 550-562] | 32.3 |
| QEYGGQKPELSKP [YHL032C 439-451] | 58.1 |
| PRIPRLVPQWEKP [YLR174W 115-127] | 698 |
| PQYDEIHIPAPSKP [YER172C 458-471] | 36.2 |
| PKRRAPPPVPKKP [YIR003W 384-396] | 110000 |
| PRTYSKTYSTPKRP [YBR189W 5-18] | 88.1 |
| PNSDRLQLLEPFKP [YJL200C 564-577] | 98.6 |
| PTLEDHTPPEDKP [YHR001W-A 64-76] | 81 |
| QDYGSISPSNIRP [YER132C 1035-1047] | 0 |
| PMVNQYSPTRGRP [YJL060W 83-95] | 2140 |
| PVPELDIKQGPVRP [YDL095W 15-28] | 183 |
| PPLTKEGPTSKKP [YCR094W 11-23] | 200 |
| PVSSRKAVEPPRKP [YDR464W 340-353] | 479 |
| PLDLVKNIKLPAKP [YDL019C 243-256] | 383 |
| PVFMAIKQHSPDKP [YGR271W 1358-1371] | 790 |
| PQNRVQAPTAYKP [YBL013W 258-270] | 287 |

| Binder | normalised SPOT signal, Boehringer light units (BLU); mean over the file's lines of this peptide |
| --- | --- |
| QEENKLEESVPTKP [YIL072W 279-292] | 88 |
| PKPKVQIPGLNRP [YDR266C 579-591] | 38700 |
| QEDPISNFLPPPKP [YBR108W 580-593] | 114 |
| PLVSSNKQSNPMRP [YER064C 414-427] | 1040 |
| PRIPRLVPRWEKP [YDL066W 131-143] | 3910 |
| PNERIISFEFPERP [YER086W 492-505] | 64.1 |
| PNNNGITPVEKKP [YJL123C 260-272] | 0 |
| PTTLKRPPLSSRP [YDR389W 56-68] | 6140 |
| PKQTIHVLEQPDRP [YDR158W 295-308] | 62.2 |
| PLPFELRSKLPTKP [YHL029C 305-318] | 2670 |
| QEQQNKAPEKPKP [YGL105W 194-206] | 46.6 |
| PQLHDYLPTLERP [YCR034W 17-29] | 0 |
| PRGAPGMPEMLKP [YJR016C 466-478] | 146 |
| PVIMWVPSMYPVKP [YCL008C 82-95] | 94.4 |
| PPPQQAQSLQPLKP [YIR006C 205-218] | 188 |
| PTTSIGFPALEKP [YLL022C 355-367] | 49.2 |
| PKTMAKIPVSVKP [YGL035C 180-192] | 1630 |

The next lines start with the values.

| normalised SPOT signal, Boehringer light units (BLU); mean over the file's lines of this peptide | Binder |
| --- | --- |
| -0 | PRETAAGPANIRP [YOL019W 423-435] |
| 110 | PLYDGNSITPPVKP [YMR016C 338-351] |
| 32.6 | PKKRGRKPKDPSKP [YML065W 327-340] |
| 67.5 | QDKRNLRSNAPTKP [YLR263W 598-611] |
| 165 | QEAVNSSPSEFRP [YOR299W 396-408] |
| 14100 | PLKPKMLPIPSKP [YPL243W 529-541] |
| 117 | PPPPPPPPPSSKP [YMR109W 1073-1085] |
| 86.5 | PSNDRSAPKNIKP [YNL139C 1426-1438] |
| 23.6 | PSVVSSSESQPSKP [YML109W 615-628] |
| 1700 | PVTMRVHPKNGKP [YLR304C 734-746] |
| 46.8 | PRDTIIGHGLPYKP [YLR224W 322-335] |
| 0 | QAHVQTNPQVPKP [YPR129W 112-124] |
| 37.3 | PTAVFLRLISPTRP [YOR249C 37-50] |
| 920 | PTSDRLQLLKPFKP [YLR304C 557-570] |
| 206 | PYNYLQRPFIVKP [YML113W 199-211] |
| 97.2 | PKTSIIYANLPNRP [YMR047C 1028-1041] |
| 234 | PMVGLVDPDKLKP [YOR117W 130-142] |
| 41.4 | QDFKSPLENDPNRP [YPL188W 113-126] |
| 128 | PQQLQQQPNGQRP [YPL204W 411-423] |
| 5500 | PKMISNRRPVPRRP [YPR091C 655-668] |
| 192 | PPLIGSGPGSHKP [YLR176C 127-139] |
| 4090 | PRMGHVFPLETRP [YPR118W 222-234] |
| 117 | QAPSMGIPQQNRP [YOR181W 300-312] |
| 128 | PTDIQLKNLFPLKP [YPL243W 519-532] |
| 127 | PYTAKGAPIISKP [YOL061W 103-115] |
